Our source for the EC50 values is patent publication US20260285971 (published 2026).

The target of assay [1] is T1, human GPRC5D (human).
T1 chain: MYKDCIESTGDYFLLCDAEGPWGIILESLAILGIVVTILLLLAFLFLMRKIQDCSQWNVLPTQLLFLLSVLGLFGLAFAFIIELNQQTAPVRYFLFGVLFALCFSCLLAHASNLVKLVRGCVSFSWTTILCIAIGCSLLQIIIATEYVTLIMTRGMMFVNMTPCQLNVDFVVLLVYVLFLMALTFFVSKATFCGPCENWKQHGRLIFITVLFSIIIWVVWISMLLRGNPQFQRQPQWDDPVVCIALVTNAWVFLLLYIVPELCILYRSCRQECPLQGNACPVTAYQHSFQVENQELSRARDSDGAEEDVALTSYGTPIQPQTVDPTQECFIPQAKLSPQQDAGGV
Kind of assay: FACS molp-8.

Assay [2] concerns the target T1, human GPRC5D. Kind of assay: FACS NCI-H929.
The target in assay [3] is T1, human GPRC5D. The assay can be described thus: FACS RPMI-8226.
Assay [4] has as its target T1, human GPRC5D. Kind of assay: FACS CHOK1-human GPRC5D.

B1: HAB05-H2 (antibody, V domains shown)
VH: EVQLVESGGGLVQPGGSLRLSCAASGILVSAYVMAWYRQAPGKQRVLVSRLSTDGRTTYADSVKGRFTISKDNAKNTLYLQMNSLRAEDTAVYYCYAERSRGHWGQGTMVTVSS
As for B1, the EC50 with human GPRC5D [1] was 0.0839 nM; in the assay with human GPRC5D [2] it was 0.202 nM; with human GPRC5D [3] it was 0.141 nM; with human GPRC5D [4], 0.514 nM.

B2: HAB06-H1 (designed binder)
chain: EVQLVESGGGLVQPGGSLRLSCAASGFTFSSAWMYWFRQAPGKGLEWVSHIDPRGGSTYYADSVKGRFTISRDNSKNTLYLQMNSLRAEDTAVYYCAKDLRGLGRGQGTMVTVSS
For the molecule B2, the EC50 was determined as 0.14 nM in the assay with human GPRC5D [1], 0.166 nM with human GPRC5D [2], 0.406 nM with human GPRC5D [3] and 0.324 nM with human GPRC5D [4].
